According to patent US20250002577A1 (ONCORESPONSE, published 2025):
Changes are numbered by the printed parent chain.

B1: B21H1-33 (antibody, human IgG1, kappa)
heavy: not shown
light: DIVMTQSPSSVSASVGDRVTITCQASGNIYSFLAWYQQKPGKAPKLLIYTASNLETGVPSRFSGSGSGTDFTLTISSLQPEDFATYYCLGGLYSSDVSYAFGGGTKVVIKRTVAAPSVFIFPPSDEQLKSGTASVVCLLNNFYPREAKVQWKVDNALQSGNSQESVTEQDSKDSTYSLSSTLTLSKADYEKHKVYACEVTHQGLSSPVTKSFNRGEC
notes: humanized IgG1/kappa, VH3+VL3
B2: B21A1 (antibody, human IgG1, kappa)
heavy: not shown
light: DIVMTQTPASVEAAVGGTVTINCQASGNIYSFLAWYQQKPGQPPKLLIYTASNLETGVPSRFSGSGSGTEYTLTISGVQCDDAATYYCLGGLYSSDVSYAFGGGTEVVVKRTVAAPSVFIFPPSDEQLKSGTASVVCLLNNFYPREAKVQWKVDNALQSGNSQESVTEQDSKDSTYSLSSTLTLSKADYEKHKVYACEVTHQGLSSPVTKSFNRGEC
notes: Rabbit/human chimera, human IgG1/kappa; AF647-conjugated in the flow cytometry titrations; also called B21A1 chimera IgG1; parent B21A1
B3: B21H1-45 (antibody, human IgG1, kappa)
heavy: not shown
light: B2 light with V3Q, A9S, S10T, A14S, N22T, V78L, C80S
notes: humanized IgG1/kappa, VH4+VL5
B4: B21H1-25 (antibody, human IgG1, kappa)
heavy: not shown
light: B2 light with V3Q, A9S, S10T, A14S, N22T, V78L, C80S
notes: humanized IgG1/kappa, VH2+VL5

target: T1, human LILRB1 on cells (human, UniProt Q8NHL6 24-650); assay: flow cytometry, HEK293-6E transfectants
T1 construct: whole, on cells; also called hLILRB1; LILRB1-expressing 721.221 cells
T1 sequence (Q8NHL6 24-650): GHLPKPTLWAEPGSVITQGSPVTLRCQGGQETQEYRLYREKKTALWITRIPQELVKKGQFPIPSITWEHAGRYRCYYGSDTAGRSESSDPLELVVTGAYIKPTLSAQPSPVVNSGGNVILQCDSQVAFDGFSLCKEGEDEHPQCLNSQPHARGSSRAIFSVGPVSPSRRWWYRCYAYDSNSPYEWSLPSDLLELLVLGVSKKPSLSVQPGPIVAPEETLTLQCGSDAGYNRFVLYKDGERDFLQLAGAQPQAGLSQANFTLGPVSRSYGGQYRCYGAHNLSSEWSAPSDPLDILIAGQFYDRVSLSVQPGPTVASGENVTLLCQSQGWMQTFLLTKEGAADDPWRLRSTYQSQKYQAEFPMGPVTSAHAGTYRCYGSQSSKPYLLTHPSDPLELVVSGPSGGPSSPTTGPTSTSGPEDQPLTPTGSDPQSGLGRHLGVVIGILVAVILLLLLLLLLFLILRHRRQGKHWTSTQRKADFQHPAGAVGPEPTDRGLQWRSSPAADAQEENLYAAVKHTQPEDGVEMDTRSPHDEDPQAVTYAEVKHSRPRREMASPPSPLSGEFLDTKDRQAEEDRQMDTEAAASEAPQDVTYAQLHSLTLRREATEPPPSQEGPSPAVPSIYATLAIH
Description: (§1) To determine that the parent chimera anti LILRB2/1 antibody specifically binds to LILRB2 and LILRB1 and not to other LILRB and LILRA family members, a cross-reactivity assay was performed. Cross-reactivity was assessed by antibody binding to transiently transfected HEK293-6E cells by flow cytometry. Binding was evaluated to HEK293-6E cells transiently transfected with human LILRB-1, -2, -3, -4, and 5 plasmids (Origene, Nos. RC219949, RC217935, RC211228, RC220932, RC206516) or to cells transiently transfected with human LILRA-1, -2, -4, -5, and -6 plasmids (Origene, Nos. RC210808, RC205626, RC220452, RC212310 RC212965). […] At a concentration of 1 μg/mL, no binding of B21A1 or the humanized variants to LILRB-3, -4, or -5 was observed (Table 7). Additionally, no binding to LILRA-1, -2, -4, -5, or -6 was observed, confirming the specificity of B21A1 and its humanized variants to LILRB1 and LILRB2 (Table 8).

| Binder | MFI |
| --- | --- |
| B1 | 860 MFI |
| B2 | 940 MFI |
| B3 | 997 MFI |
| B4 | 990 MFI |

target: T2, human LILRB2 on cells (human, UniProt Q8N423 22-597); assay: flow cytometry, HEK293-6E transfectants
T2 construct: whole, on cells; also called hLILRB2; LILRB2-HEK293T
T2 sequence (Q8N423 22-597): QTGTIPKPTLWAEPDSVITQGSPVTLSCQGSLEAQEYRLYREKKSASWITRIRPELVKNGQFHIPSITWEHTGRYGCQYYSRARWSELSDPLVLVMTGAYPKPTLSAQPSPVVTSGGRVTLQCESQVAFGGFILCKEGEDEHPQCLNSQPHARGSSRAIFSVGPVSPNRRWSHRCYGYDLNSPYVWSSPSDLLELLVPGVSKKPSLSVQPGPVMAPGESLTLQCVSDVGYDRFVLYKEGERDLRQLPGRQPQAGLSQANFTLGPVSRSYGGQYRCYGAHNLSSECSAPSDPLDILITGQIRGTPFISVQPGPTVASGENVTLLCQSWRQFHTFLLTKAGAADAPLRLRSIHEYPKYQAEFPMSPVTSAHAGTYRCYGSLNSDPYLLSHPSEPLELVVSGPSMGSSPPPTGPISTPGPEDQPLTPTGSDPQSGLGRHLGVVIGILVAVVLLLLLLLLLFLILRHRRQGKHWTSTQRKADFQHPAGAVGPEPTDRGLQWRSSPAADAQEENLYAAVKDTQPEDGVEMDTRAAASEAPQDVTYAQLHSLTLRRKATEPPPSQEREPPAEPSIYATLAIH
Description: as §1

| Binder | MFI |
| --- | --- |
| B1 | 6290 MFI |
| B2 | 5380 MFI |
| B3 | 6680 MFI |
| B4 | 5320 MFI |

target: T3, human LILRB3 on HEK293-6E cells (human, UniProt O75022 24-631); assay: flow cytometry, HEK293-6E transfectants
T3 construct: whole, on cells; also called hLILRB3
T3 sequence (O75022 24-631): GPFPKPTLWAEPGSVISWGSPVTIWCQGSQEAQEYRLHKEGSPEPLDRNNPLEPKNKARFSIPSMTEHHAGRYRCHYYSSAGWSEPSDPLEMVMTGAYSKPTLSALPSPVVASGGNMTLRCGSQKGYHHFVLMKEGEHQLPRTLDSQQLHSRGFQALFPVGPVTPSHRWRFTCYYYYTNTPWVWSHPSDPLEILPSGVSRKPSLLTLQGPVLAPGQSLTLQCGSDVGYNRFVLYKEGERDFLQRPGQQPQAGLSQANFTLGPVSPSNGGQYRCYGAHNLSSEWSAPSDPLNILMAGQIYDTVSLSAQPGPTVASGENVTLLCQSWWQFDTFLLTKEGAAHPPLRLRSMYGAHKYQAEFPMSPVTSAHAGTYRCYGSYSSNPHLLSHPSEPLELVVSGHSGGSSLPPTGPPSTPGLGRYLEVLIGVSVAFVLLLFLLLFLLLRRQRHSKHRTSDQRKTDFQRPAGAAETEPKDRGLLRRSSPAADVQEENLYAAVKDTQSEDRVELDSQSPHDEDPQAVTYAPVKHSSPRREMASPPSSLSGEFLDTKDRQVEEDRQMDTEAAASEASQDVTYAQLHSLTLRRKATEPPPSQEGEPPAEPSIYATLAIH
Description: as §1

| Binder | MFI | binding result |
| --- | --- | --- |
| B1 | 89.2 MFI | no binding (tested: 1 µg/mL) |
| B2 | 107 MFI | no binding (tested: 1 µg/mL) |
| B3 | 81 MFI | no binding (tested: 1 µg/mL) |
| B4 | 93.9 MFI | no binding (tested: 1 µg/mL) |

target: T4, human LILRB4 on HEK293-6E cells (human, UniProt Q8NHJ6 22-448); assay: flow cytometry, HEK293-6E transfectants
T4 construct: whole, on cells; also called hLILRB4
Description: as §1

| Binder | MFI | binding result |
| --- | --- | --- |
| B1 | 27.4 MFI | no binding (tested: 1 µg/mL) |
| B2 | 35.2 MFI | no binding (tested: 1 µg/mL) |
| B3 | 27.2 MFI | no binding (tested: 1 µg/mL) |
| B4 | 32.4 MFI | no binding (tested: 1 µg/mL) |

target: T5, human LILRB5 on HEK293-6E cells (human, UniProt O75023 24-590); assay: flow cytometry, HEK293-6E transfectants
T5 construct: whole, on cells; also called hLILRB5
Description: as §1

| Binder | MFI | binding result |
| --- | --- | --- |
| B1 | 85.8 MFI | no binding (tested: 1 µg/mL) |
| B2 | 101 MFI | no binding (tested: 1 µg/mL) |
| B3 | 83.6 MFI | no binding (tested: 1 µg/mL) |
| B4 | 90.6 MFI | no binding (tested: 1 µg/mL) |

target: T6, human LILRA1 on HEK293-6E cells (human, UniProt O75019 17-489); assay: flow cytometry, HEK293-6E transfectants
T6 construct: whole, on cells; also called hLILRA1
T6 sequence (O75019 17-489): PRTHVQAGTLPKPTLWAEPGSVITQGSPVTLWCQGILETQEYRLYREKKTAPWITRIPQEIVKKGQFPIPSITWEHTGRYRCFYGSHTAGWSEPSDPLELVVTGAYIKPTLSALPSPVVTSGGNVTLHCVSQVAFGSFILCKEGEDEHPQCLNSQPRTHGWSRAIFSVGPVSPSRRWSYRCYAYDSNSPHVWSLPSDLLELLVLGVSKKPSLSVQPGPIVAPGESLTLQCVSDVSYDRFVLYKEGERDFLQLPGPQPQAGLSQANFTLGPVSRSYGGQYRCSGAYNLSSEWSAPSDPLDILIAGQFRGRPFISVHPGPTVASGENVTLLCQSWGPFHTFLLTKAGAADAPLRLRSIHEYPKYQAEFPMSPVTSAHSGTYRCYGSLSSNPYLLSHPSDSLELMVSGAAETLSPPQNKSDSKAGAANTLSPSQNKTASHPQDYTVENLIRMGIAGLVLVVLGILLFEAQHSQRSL
Description: as §1

| Binder | MFI | binding result |
| --- | --- | --- |
| B1 | 204 MFI | no binding (tested: 1 µg/mL) |
| B2 | 264 MFI | no binding (tested: 1 µg/mL) |
| B3 | 264 MFI | no binding (tested: 1 µg/mL) |
| B4 | 280 MFI | no binding (tested: 1 µg/mL) |

target: T7, human LILRA2 on HEK293-6E cells (human, UniProt Q8N149 24-483); assay: flow cytometry, HEK293-6E transfectants
T7 construct: whole, on cells; also called hLILRA2
T7 sequence (Q8N149 24-483): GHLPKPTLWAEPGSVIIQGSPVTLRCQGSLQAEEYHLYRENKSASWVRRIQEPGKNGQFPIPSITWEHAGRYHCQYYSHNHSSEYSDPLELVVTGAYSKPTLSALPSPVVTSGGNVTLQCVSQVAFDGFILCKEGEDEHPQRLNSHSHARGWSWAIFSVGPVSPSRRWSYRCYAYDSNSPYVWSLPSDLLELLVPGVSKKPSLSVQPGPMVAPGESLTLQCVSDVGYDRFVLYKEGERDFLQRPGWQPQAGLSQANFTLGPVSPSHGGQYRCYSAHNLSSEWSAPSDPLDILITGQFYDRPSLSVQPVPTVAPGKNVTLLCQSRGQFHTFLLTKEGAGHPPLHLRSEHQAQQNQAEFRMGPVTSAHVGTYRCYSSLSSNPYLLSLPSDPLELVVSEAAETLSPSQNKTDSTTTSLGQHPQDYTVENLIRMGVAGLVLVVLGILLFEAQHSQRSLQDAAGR
Description: as §1

| Binder | MFI | binding result |
| --- | --- | --- |
| B1 | 25.9 MFI | no binding (tested: 1 µg/mL) |
| B2 | 30.2 MFI | no binding (tested: 1 µg/mL) |
| B3 | 26.2 MFI | no binding (tested: 1 µg/mL) |
| B4 | 27.4 MFI | no binding (tested: 1 µg/mL) |

target: T8, human LILRA4 on HEK293-6E cells (human, UniProt P59901 24-499); assay: flow cytometry, HEK293-6E transfectants
T8 construct: whole, on cells; also called hLILRA4
T8 sequence (P59901 24-499): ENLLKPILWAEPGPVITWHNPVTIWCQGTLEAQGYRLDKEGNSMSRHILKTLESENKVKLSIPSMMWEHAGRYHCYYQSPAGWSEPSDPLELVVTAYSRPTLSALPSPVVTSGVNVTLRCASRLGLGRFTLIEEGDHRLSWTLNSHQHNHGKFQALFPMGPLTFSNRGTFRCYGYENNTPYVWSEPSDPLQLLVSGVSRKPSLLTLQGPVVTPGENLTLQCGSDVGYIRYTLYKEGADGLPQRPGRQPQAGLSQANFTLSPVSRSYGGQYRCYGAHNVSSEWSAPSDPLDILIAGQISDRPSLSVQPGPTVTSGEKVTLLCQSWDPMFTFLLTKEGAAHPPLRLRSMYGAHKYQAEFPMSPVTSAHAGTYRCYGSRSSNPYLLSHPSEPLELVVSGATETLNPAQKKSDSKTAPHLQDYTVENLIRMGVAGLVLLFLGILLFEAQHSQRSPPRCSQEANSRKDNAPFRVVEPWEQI
Description: as §1

| Binder | MFI | binding result |
| --- | --- | --- |
| B1 | 112 MFI | no binding (tested: 1 µg/mL) |
| B2 | 143 MFI | no binding (tested: 1 µg/mL) |
| B3 | 108 MFI | no binding (tested: 1 µg/mL) |
| B4 | 138 MFI | no binding (tested: 1 µg/mL) |

target: T9, human LILRA5 on HEK293-6E cells (human, UniProt A6NI73 42-299); assay: flow cytometry, HEK293-6E transfectants
T9 construct: whole, on cells; also called hLILRA5
T9 sequence (A6NI73 42-299): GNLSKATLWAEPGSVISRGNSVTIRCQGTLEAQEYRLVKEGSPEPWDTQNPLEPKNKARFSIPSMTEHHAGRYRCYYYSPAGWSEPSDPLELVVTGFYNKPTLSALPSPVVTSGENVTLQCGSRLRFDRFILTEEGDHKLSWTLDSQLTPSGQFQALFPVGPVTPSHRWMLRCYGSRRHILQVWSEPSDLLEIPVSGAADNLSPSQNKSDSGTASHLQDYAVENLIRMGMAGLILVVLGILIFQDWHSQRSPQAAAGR
Description: as §1

| Binder | MFI | binding result |
| --- | --- | --- |
| B1 | 73.1 MFI | no binding (tested: 1 µg/mL) |
| B2 | 78.5 MFI | no binding (tested: 1 µg/mL) |
| B3 | 71 MFI | no binding (tested: 1 µg/mL) |
| B4 | 78.2 MFI | no binding (tested: 1 µg/mL) |

target: T10, human LILRA6 on HEK293-6E cells (human, UniProt Q6PI73 24-481); assay: flow cytometry, HEK293-6E transfectants
T10 construct: whole, on cells; also called hLILRA6
T10 sequence (Q6PI73 24-481): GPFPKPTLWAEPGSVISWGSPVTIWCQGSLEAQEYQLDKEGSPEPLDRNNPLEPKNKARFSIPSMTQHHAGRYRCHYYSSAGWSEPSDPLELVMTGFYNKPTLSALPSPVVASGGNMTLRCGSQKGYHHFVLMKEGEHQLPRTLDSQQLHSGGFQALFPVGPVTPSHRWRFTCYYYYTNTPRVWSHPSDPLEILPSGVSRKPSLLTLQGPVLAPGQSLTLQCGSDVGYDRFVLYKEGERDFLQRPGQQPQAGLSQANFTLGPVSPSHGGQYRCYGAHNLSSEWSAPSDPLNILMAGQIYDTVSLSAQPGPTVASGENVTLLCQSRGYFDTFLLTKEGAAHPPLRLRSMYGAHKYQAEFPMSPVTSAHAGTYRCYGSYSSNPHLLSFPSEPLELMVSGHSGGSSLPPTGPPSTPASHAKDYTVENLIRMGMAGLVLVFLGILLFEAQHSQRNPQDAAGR
Description: as §1

| Binder | MFI | binding result |
| --- | --- | --- |
| B1 | 140 MFI | no binding (tested: 1 µg/mL) |
| B2 | 150 MFI | no binding (tested: 1 µg/mL) |
| B3 | 135 MFI | no binding (tested: 1 µg/mL) |
| B4 | 148 MFI | no binding (tested: 1 µg/mL) |

target: T11, recombinant human LILRB1-His (human, UniProt Q8NHL6 24-458); assay: MSD ELISA, coated antigen, purified IgG1
T11 construct: Bought protein; also called LILRB1 protein
T11 sequence (Q8NHL6 24-458 limits assumed): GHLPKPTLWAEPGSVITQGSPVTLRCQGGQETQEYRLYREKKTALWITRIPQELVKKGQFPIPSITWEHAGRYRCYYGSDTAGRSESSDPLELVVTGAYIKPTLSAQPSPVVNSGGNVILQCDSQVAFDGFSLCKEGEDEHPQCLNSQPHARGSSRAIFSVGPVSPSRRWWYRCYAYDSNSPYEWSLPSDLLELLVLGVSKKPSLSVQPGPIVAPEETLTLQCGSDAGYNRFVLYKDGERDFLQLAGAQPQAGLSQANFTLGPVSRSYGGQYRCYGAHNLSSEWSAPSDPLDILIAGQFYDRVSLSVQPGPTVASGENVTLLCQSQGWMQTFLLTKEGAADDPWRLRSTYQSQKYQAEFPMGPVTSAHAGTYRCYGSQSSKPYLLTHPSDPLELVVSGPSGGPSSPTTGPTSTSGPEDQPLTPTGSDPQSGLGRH
Description: (§2) Recombinant human and cynomolgus LILRB1 proteins (R&D Systems, No. 8989-T2-050; ACROBiosystems, No. CDJ-C52H3) and recombinant human and cynomolgus LILRB2 proteins (ACROBiosystems, No. LI2-H5220; No. L12-C52H3) were diluted in PBS to 4 μg/mL and added to a multi-array 384-well high-binding plates (MSD, No. L21XA4) at 10 μL/well and incubated at 4° C. overnight. The plates were washed several times with Wash Buffer (0.05% Tween® 20 in PBS), using a microplate washer and then blocked with 70 μL/well of 5% BSA in PBS for 1 hour (h) at room temperature (RT) with shaking at 700 rpm. After blocking, 20 μL/well of anti-LILRB2/LILRB1 antibodies or isotype control were added to the plates, and the plates were sealed and incubated for 2 h at RT with shaking at 700 rpm. After primary antibody binding, plates were washed five times with 70 μL/well of Wash Buffer (0.05% Tween® 20 in PBS) using a microplate washer. Secondary detection antibody (SULFO-TAG™-labeled goat anti-human IgG antibody (MSD, No. R32AJ-1)) was diluted to 4 μg/mL in assay diluent (1% BSA in PBS) and 10 μL/well was added to plates and incubated at RT protected from light for 1 h, with shaking at 700 rpm. Following incubation, plates were washed five times with Wash Buffer, using a microplate washer. After removal of the final wash, 35 μL/well of MSD Gold Read Buffer B (MSD, No. R60AM-4) was added to all wells using a Multidrop combo washer/dispenser, and plates were read using MESO Sector 600MM instrument (MSD) within 5 minutes (min) after addition of Read Buffer. Signals as counts per minute (cpm) were recorded. EC₅₀ values were calculated using GraphPad Prism based on log concentration of the primary antibodies versus cpm values.

| Binder | EC50 |
| --- | --- |
| B1 | 0.00616 µg/mL |
| B2 | 0.0105 µg/mL |
| B3 | 0.0134 µg/mL |
| B4 | 0.0095 µg/mL |

target: T12, recombinant human LILRB2-His (human, UniProt Q8N423 22-461, limits assumed); assay: MSD ELISA, coated antigen, purified IgG1
T12 construct: Bought protein; also called LILRB2 protein
T12 sequence (Q8N423 22-461 limits assumed): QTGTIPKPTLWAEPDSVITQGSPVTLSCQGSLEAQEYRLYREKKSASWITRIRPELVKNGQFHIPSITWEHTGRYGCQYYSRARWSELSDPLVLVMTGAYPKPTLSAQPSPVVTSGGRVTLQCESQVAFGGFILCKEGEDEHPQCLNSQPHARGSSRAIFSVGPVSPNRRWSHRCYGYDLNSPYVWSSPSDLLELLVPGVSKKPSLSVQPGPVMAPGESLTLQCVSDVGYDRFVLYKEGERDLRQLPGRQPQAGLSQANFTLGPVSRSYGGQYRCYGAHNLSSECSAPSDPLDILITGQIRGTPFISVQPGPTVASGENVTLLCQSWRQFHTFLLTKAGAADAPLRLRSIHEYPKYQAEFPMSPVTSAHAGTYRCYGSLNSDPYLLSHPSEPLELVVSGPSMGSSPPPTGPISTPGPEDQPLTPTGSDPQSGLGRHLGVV
Description: as §2

| Binder | EC50 |
| --- | --- |
| B1 | 0.0225 µg/mL |
| B2 | 0.038 µg/mL |
| B3 | 0.0461 µg/mL |
| B4 | 0.0318 µg/mL |

target: T13, recombinant cynomolgus LILRB1 (cynomolgus); assay: MSD ELISA, coated antigen, purified IgG1
T13 construct: Bought protein
Description: as §2

| Binder | EC50 |
| --- | --- |
| B1 | 5.85 µg/mL |
| B2 | 0.306 µg/mL |
| B3 | 0.284 µg/mL |
| B4 | 0.377 µg/mL |

target: T1, human LILRB1 on cells; assay: flow cytometry, 721.221 cells, AF647-labelled antibody
Description: (§3) While LILRB2 expression is mostly restricted to myeloid cells, LILRB1 has a broader expression on immune cell subsets, including B cells, T cells and NK cells.
(§4) Frozen cells were removed from storage in vapor phase liquid nitrogen and thawed by gentle swirling in a water bath at 37° C., then resuspended in DMEM media with 10% FBS. Cells were placed in a 15 mL conical tube and centrifuged at 300×g for 5 min, then supernatant was removed. Cells were resuspended in DMEM+10% FBS at a cell density of 2×10⁵ cells/mL in a T75 flask for culturing, and incubated at 37° C., 5% CO₂ for 3 days before passaging. Cells were passaged when the cell density reached 1×10⁶ cell/mL. On the day of the assay, cells were centrifuged, then supernatant was removed. Cells were resuspended in Blocking Buffer B (FACS Buffer containing 10% FBS and 0.5 mg/mL human IgG1 (Athens Research, No. 16-16-090707-1M)+0.05% NaN₃, 5% (w/v)) in a 15 mL conical tube, then incubated at 4° C. for 30 min. […] Cells were incubated with antibodies at 4° C. for 1 h. Cells were washed twice in FACS Buffer (PBS containing 2 mM EDTA+1% FBS+0.05% NaN₃) and then stained with for 10 min with Zombie Violet™ fixable viability dye (BioLegend, No. 423114) at RT, washed with FACS Buffer and resuspend in 75 μL of FACS Buffer for acquisition on a BD FACSymphony™ or BD FACSCanto™ II flow cytometer (BD Biosciences), as described in Example 6.

| Binder | EC50 |
| --- | --- |
| B2 | 0.0448 µg/mL |
| B3 | 0.0616 µg/mL |
| B4 | 0.0782 µg/mL |

target: T2, human LILRB2 on cells; assay: flow cytometry, LILRB2-HEK293T cells, AF647-labelled antibody
Description: as §3, §4

| Binder | EC50 |
| --- | --- |
| B1 | 1.44 ng/mL |
| B2 | 0.8 ng/mL |
| B3 | 0.86 ng/mL |
| B4 | 0.9 ng/mL |
